Assay results published in patent US9018138.

What was measured:
integrins = assay: cell-based or functional assay
[1] = biological target: coxsackievirus-adenovirus receptor (CAR) on 293, PC-3 and PC3-CAR cells (UniProt P78310); assay: cell-based or functional assay

| Substance | infection relative to wild type fiber virus (integrins) [%] | infection of 293 cells after anti-CAR siRNA knock-down (GFP) [1] [%] | infection of PC3-CAR against PC-3 cells (GFP fluorescence intensity, MOI 100) [1] [fold] |
| --- | --- | --- | --- |
| CAR ablated and RGD4C re-targeted Fiber (ΔTAYT-RGD), displayed on the capsid of virus AdTrack-RGD4C-2 (from UniProt P11818 1-542; P11818 543-581) | 5 | – | – |
| wild type Adenovirus Serotype 5 (Ad5) Fiber, displayed on the capsid of virus AdTrack-WTFib (from UniProt P11818 1-581) | – | > 50 | 26 |
